Laboratory results as given in US10689651B2, “Method of inhibiting macrophage activation using an inhibitor of PARP9” (THE BRIGHAM AND WOMEN'S HOSPITAL, INC., priority 2013, dated 2020).
Entries after “also recorded” stand apart in the source; their conditions may differ.

Molecular target: T1, PARP14 (Homo sapiens, UniProt Q460N5)
T1 construct: purchased BPS Bioscience Inc
Experiment: Ribosylation assay: PARP14-mediated ADP-ribosylation of STAT1α
Type: biochemical
Settings: recombinant proteins; for PARP14-induced mono ADP-ribosylation at Glu657 and Glu705 of STAT1α: LC-MS/MS, MS1 AUC quantification
Source text: The high resolution/accuracy LTQ-Orbitrap Elite (Thermo Scientific) analyzed TMT peptide samples and the Q Exactive (Thermo Scientific) analyzed in vitro ribosylated peptides. Both mass spectrometers are fronted with a Nanospray FLEX ion source, and coupled to an Easy-nLC1000 HPLC pump (Thermo Scientific). The peptides were subjected to a dual column set-up: an Acclaim PepMap RSLC C18 trap column, 75 um×20 cm (50 um×15 cm on the Q Exactive); and an Acclaim PepMap RSLC C18 analytical column 75 um×250 mm (Thermo Scientific). For TMT analysis the analytical gradient was run at 250 nl/min from 10 to 30% Solvent B (acetonitrile/0.1% formic acid) for 90 minutes, followed by five minutes of 95% Solvent B. Solvent A was 0.1% formic acid. For ribosylated peptides the gradient was run at 250 nl/min from 5 to 28% Solvent B for 30 minutes, followed by five minutes of 95% Solvent B. All reagents were HPLC-grade. […] Unmodified forms were calculated by subtracting the mass of the ADP-ribose (541. 06 Da) from the observed precursor. Modified and unmodified m/z values and corresponding retention time windows were submitted to an inclusion list and analyzed in using the data-independent acquisition module of the Q Exactive (R=35 K).
Recombinant human PARP14 and PARP9 (BPS Bioscience Inc.) proteins, and BSA (Sigma-Aldrich) were incubated with recombinant human STAT1α (OriGene Technologies, Inc.) or STAT6 protein (Sino Biological Inc.) at a final concentration of 5 ng/μl in the presence of 100 μM β-Nicotinamide adenine dinucleotide hydrate (NAD; Sigma-Aldrich) or 6-biotin-17-NAD (Trevigen, Inc.) in 50 mM Tris-HCl buffer (pH 7.4) for 1 hour at room temperature. Ribosylation of STAT1α and STAT6 was detected by LC-MS/MS after trypsin digestion or Western blotting using Streptavidin-HRP (Abcam) after SDS-PAGE. Quantification of the relative abundances of ribosylated STAT1α peptides was completed by calculating the area under the curve (AUC) of the extracted ion chromatograms (XICs) of the monoisotopic peaks of the modified versus unmodified peptides. […]

T1 sequence (Q460N5 whole entry): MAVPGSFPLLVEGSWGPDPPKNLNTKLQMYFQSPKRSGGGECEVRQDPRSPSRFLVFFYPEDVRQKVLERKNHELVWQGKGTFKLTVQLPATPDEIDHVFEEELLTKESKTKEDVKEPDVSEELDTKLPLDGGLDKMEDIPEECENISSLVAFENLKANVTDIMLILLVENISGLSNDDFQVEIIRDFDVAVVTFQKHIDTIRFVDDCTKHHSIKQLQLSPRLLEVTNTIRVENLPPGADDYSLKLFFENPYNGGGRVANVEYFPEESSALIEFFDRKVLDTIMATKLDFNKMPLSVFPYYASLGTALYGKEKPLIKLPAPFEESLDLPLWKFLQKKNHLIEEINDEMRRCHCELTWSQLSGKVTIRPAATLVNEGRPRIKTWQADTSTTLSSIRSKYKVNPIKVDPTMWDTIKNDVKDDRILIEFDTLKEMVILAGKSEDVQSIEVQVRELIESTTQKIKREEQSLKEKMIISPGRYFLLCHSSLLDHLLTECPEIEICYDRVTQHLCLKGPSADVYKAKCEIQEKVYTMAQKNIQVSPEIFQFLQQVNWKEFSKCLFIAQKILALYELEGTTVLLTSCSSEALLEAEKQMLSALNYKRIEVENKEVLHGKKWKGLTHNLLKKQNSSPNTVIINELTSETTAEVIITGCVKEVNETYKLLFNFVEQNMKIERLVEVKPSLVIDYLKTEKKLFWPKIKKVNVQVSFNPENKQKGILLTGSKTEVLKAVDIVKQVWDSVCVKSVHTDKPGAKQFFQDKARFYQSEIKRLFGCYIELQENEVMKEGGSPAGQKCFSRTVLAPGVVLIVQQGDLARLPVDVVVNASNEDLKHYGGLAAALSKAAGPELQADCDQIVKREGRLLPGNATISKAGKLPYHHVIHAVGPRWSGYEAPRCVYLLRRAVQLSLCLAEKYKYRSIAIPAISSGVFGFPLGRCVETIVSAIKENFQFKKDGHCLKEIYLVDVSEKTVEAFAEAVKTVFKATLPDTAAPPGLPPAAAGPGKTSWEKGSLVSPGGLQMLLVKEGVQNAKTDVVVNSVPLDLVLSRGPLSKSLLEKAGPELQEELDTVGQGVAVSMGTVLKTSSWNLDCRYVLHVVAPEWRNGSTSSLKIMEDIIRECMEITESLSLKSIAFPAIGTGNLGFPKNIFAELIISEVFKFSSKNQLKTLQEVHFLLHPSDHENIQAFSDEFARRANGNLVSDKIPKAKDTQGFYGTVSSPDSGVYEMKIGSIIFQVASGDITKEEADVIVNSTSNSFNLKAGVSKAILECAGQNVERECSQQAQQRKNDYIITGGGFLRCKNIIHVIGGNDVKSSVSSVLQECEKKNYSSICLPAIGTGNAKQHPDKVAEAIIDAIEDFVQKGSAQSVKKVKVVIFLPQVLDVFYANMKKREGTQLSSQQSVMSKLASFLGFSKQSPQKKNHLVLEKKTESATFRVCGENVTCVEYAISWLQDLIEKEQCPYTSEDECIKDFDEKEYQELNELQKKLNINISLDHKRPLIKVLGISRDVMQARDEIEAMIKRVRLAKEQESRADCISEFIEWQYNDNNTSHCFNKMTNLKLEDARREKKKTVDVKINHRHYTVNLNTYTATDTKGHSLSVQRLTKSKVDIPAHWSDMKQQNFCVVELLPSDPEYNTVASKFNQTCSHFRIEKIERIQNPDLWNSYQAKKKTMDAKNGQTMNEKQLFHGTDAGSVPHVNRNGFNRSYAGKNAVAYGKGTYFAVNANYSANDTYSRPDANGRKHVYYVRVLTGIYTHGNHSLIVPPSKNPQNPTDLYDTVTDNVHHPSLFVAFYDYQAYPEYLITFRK

PARP14-induced mono ADP-ribosylation at Glu657 and Glu705 of STAT1α: inhibited | PARP14-induced mono ADP-ribosylation at Glu657 and Glu705 of STAT1α (listed as PARP9): inhibition | ADP-ribosylation of STAT1α by PARP14 (protein ribosylation assay (Western blot)): suppressed; also recorded: inhibits
Substance: recombinant PARP9: Recombinant human PARP9 protein (BPS Bioscience Inc.) added to the PARP14 ribosylation assay
